Experimental data as given in US20130142802A1.

Columns and labels:
[1] = target: native FGFR2-IIIc on rat prostate cancer cell line AT3B-1 (rat) (UniProt F1LNW0); assay: flow cytometry on AT3B-1 cells; no-primary control 11%
[2] = target: native FGFR2-IIIc on rat prostate cancer cell line AT3B-1 (rat) (UniProt F1LNW0); assay: flow cytometry on rat prostate cancer cell line AT3B-1; marker M1 9-7844, 1840 of 15000 events; the panel without primary antibody also prints 12.27

## human IgG (negative control) (antibody)
[1]
  % positive staining of the cell population: 12%
[2]
  %Gated (marker M1): 12.3%
